± gives the standard deviation of the averaged measurements.
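Further: ATP exposure 15 min at 22 °C before imaging.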

The subject of this series is ATP. As to the kind of experiment: switch fluorescence ratio, 500 uM ATP over buffer (Cy3 cluster intensity, sum of 5 cycles each) (fold (ratio)); higher = stronger signal-on switching upon ATP binding; sequences stand for … in TCGTCGGCAGCGTCAGATGTGTATAAGAGACAGTTTTTTTTTTTTTTTTTTTTTTTTT…TC. Particulars: aptamer strand: ATP DNA aptamer (quencher-CACCTGGGGGAGTATTGCGGAGGAAGG + anchor), 100 nM annealed; ATP concentration: 500 uM. Put shortly: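 Values give the fluorescence ratio for each switch-domain sequence, averaged from per-cluster ratios of summed target-cycle to summed buffer-cycle Cy3 intensity. The Cy3-labelled switching-strand clusters sat on a modified Illumina MiSeq flow-cell, were annealed to 100 nM quencher-labelled ATP aptamer, and were imaged in selection buffer, then after 15 min with 500 uM ATP at 22 °C. Five cycles ran with NaOH stripping and re-annealing between them, and clusters outside 100-1000 RFU were excluded.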
On to TAATTATGAG, for which the switch fluorescence ratio is 0.9902 ± 0.0071. For GCAAATGAGT, the switch fluorescence ratio came out at 1.003 ± 0.0082. For TTATGTGGGT, the switch fluorescence ratio is 0.989 ± 0.029.

As to GCTCGAAAGA, the switch fluorescence ratio was determined as 1.008 ± 0.0024. As for TAATAAAAGG, the switch fluorescence ratio came to 0.998 ± 0.041. Turning to GCTCTTGTGC, the switch fluorescence ratio was determined as 1.008 ± 0.0034.

As to TGGTTGAAT, the switch fluorescence ratio came out at 1.01 ± 0.049. Take TTCGTCAGTG: the switch fluorescence ratio came out at 0.986 ± 0.013. For the sequence TTGTTGATTA, the switch fluorescence ratio is 0.9935 ± 0.0089. With TCATAGATTT, the switch fluorescence ratio amounted to 0.988 ± 0.013.

CGTAAATATA: the switch fluorescence ratio is 1.03 ± 0.015. Take CGGGTTCGCC: the switch fluorescence ratio was determined as 0.981 ± 0.012. Consider ATCGTGGATT, for which the switch fluorescence ratio stood at 0.969 ± 0.019. As for GAATTGGGGG, the switch fluorescence ratio was determined as 1.01 ± 0.03. Take GAAGTGGTTT: the switch fluorescence ratio worked out at 0.997 ± 0.025.

Turning to TAAAGGGTTA, the switch fluorescence ratio is 0.985 ± 0.014. Then ACTGTTAATG, with 1.01 ± 0.026. For TGTTGGTGGG, the switch fluorescence ratio worked out at 0.989 ± 0.024. Consider ATTAACCATT, for which the switch fluorescence ratio was found to be 1.01 ± 0.014. As for TACCGGATTT, the switch fluorescence ratio came to 0.979 ± 0.0026.

For the sequence GTTTCTTTAC, the switch fluorescence ratio is 0.988 ± 0.058. On to AGGCGTGAGG, for which the switch fluorescence ratio was determined as 1.01 ± 0.049. Then TACCTCATGG, with 1.01 ± 0.054; and TTGACGATTT, with 1.05 ± 0.063. Consider ATGTTAACGG, for which the switch fluorescence ratio was determined as 1.01 ± 0.012.

Consider AGCGGGGGGT, for which the switch fluorescence ratio was found to be 1.03 ± 0.033. To AATTGGGTTT belongs 0.99 ± 0.023; to AATAGACTT, 0.999 ± 0.013. Regarding TAGTTTTTGT, the switch fluorescence ratio worked out at 1.01 ± 0.049.

Take ATAAACGTTA: the switch fluorescence ratio came to 1.1 ± 0.018. For the sequence TCAGGTCGCA, the switch fluorescence ratio came to 0.9894 ± 0.0054. On to GCAGTATAAT, for which the switch fluorescence ratio was found to be 0.9932 ± 0.0099. As for ATTACTGTGT, the switch fluorescence ratio amounted to 0.99 ± 0.02. Then TTATTATTGG, with 0.986 ± 0.013; and AAAGCCGTTT, with 1.2 ± 0.27; and GACGGTAAAG, with 0.996 ± 0.037. Consider AGGCTCTTTG, for which the switch fluorescence ratio amounted to 1.01 ± 0.04. For the sequence AATAGACCTT, the switch fluorescence ratio came to 1.13 ± 0.17.

Take CTCGGGCAGG: the switch fluorescence ratio came to 1.01 ± 0.032. For the sequence GGGGCTAGGG, the switch fluorescence ratio worked out at 1 ± 0.032.

On to TACTGGCTGT, for which the switch fluorescence ratio turned out to be 1.01 ± 0.029.

For the sequence TAGGTTTGGT, the switch fluorescence ratio turned out to be 1.018 ± 0.0063. On to TATAAATGGC, for which the switch fluorescence ratio came to 1.01 ± 0.029. Take GCAAAAATCT: the switch fluorescence ratio came out at 1.01 ± 0.046. To CATTGACATT belongs 1.06 ± 0.026; to ACGGTGATAT, 1.03 ± 0.028. Consider GTGGTGGTGG, for which the switch fluorescence ratio came out at 0.996 ± 0.023. Consider ATTGAAGGCG, for which the switch fluorescence ratio came to 1 ± 0.038. For TAATAAACAA, the switch fluorescence ratio amounted to 1 ± 0.024. Then ATATAGTTTG, with 1.001 ± 0.0031; and TATGGTCAGT, with 0.968 ± 0.047. Consider ACCGGGTGTA, for which the switch fluorescence ratio came to 1.3 ± 0.086. Turning to TATAAGCACG, the switch fluorescence ratio is 1.096 ± 0.0066. Then CTTAGGGGT, with 1.03 ± 0.015; and AATATCGGGA, with 0.983 ± 0.038; and TGGTTCCCTT, with 1.02 ± 0.07. AGTTGCACGT: the switch fluorescence ratio turned out to be 0.954 ± 0.041.

With CGATTTTGAT, the switch fluorescence ratio is 1.01 ± 0.013. In the case of TTGAAATTGG, the switch fluorescence ratio came out at 0.99 ± 0.031.

With GCTGGATGGC, the switch fluorescence ratio came out at 0.993 ± 0.025.

Consider GTCCGAAGGC, for which the switch fluorescence ratio was 0.988 ± 0.014. With TCGGCAATTT, the switch fluorescence ratio came out at 1.4 ± 0.34. On to TGGGAGAGGT, for which the switch fluorescence ratio was found to be 0.996 ± 0.02. ATGAGAATAG: the switch fluorescence ratio came out at 1.01 ± 0.0016.

As for CAAGATCGGC, the switch fluorescence ratio worked out at 1.01 ± 0.079. For CCAGGCTGTT, the switch fluorescence ratio amounted to 1.07 ± 0.023. For AAGTTGGGAT, the switch fluorescence ratio amounted to 0.972 ± 0.037. As to CACTTCATTT, the switch fluorescence ratio turned out to be 1.01 ± 0.013. With CGGTGGTGAT, the switch fluorescence ratio worked out at 1.009 ± 0.0059. With CCTAATCAAC, the switch fluorescence ratio stood at 1.13 ± 0.034. Turning to GAATGTATCG, the switch fluorescence ratio is 0.981 ± 0.021. For TTTGGGCATA, the switch fluorescence ratio amounted to 1.16 ± 0.19. Consider TGATATTATT, for which the switch fluorescence ratio was 1.02 ± 0.015. Consider ACGGGAAGGG, for which the switch fluorescence ratio is 1.05 ± 0.03. Take TCATTGGGGT: the switch fluorescence ratio came to 0.957 ± 0.033.

On to TATACAGAGG, for which the switch fluorescence ratio came to 0.983 ± 0.032. Take GGGGAAGGTT: the switch fluorescence ratio was 0.991 ± 0.037.

As to TTACGGGTAA, the switch fluorescence ratio is 0.99 ± 0.01. As to AGGGTGTTAT, the switch fluorescence ratio is 0.993 ± 0.022. GGACTAAAAT: the switch fluorescence ratio was determined as 1.08 ± 0.13. Take CGGGGTTCGG: the switch fluorescence ratio is 0.996 ± 0.023. With GTTAAAAGGG, the switch fluorescence ratio stood at 1.01 ± 0.028. Take AAATGAAAAA: the switch fluorescence ratio was found to be 0.99 ± 0.091.

For the sequence ACTAAAAATT, the switch fluorescence ratio is 1.05 ± 0.04. ACCCGGCACA: the switch fluorescence ratio came out at 1.21 ± 0.051. Consider TACGCTTAGC, for which the switch fluorescence ratio was found to be 1.1 ± 0.031. To AAGTGGTTGG belongs 0.984 ± 0.024; to CTTATTAGGC, 1.05 ± 0.042. In the case of TTCTTTAATT, the switch fluorescence ratio came out at 0.963 ± 0.01. With TTTTGGGGTT, the switch fluorescence ratio turned out to be 0.997 ± 0.043. CGAGGGTCGG: the switch fluorescence ratio was 1.01 ± 0.042.

For CGGGTTCAT, the switch fluorescence ratio worked out at 1.01 ± 0.028.

AACAGGGCAC: the switch fluorescence ratio came out at 1.018 ± 0.0051. Regarding CGAGAGGGTG, the switch fluorescence ratio turned out to be 1.03 ± 0.02. To ACCAATAAAC belongs 1.09 ± 0.033; to AAATTCGAAG, 0.982 ± 0.011; to TAATTTATCA, 1.01 ± 0.035. On to TGCGAGTTCT, for which the switch fluorescence ratio was 1 ± 0.014.

As for TTTGGGCGCT, the switch fluorescence ratio amounted to 1.04 ± 0.048. With GGGGTGGGTT, the switch fluorescence ratio was 0.985 ± 0.036. As to ATGTATTACT, the switch fluorescence ratio came out at 1.03 ± 0.033. Regarding ATGTTTGATT, the switch fluorescence ratio was 0.999 ± 0.047.

For AGTGTGTGGC, the switch fluorescence ratio is 1.01 ± 0.016. Then GACTTGGAAT, with 1 ± 0.041; and GGGGAGGTCT, with 1.01 ± 0.03. With AAATTTTTTT, the switch fluorescence ratio is 0.996 ± 0.054. With ACGGACATGG, the switch fluorescence ratio is 1.08 ± 0.017. In the case of GCTTCGGCGC, the switch fluorescence ratio stood at 1.03 ± 0.046.

Take TAAAGCTAGG: the switch fluorescence ratio was found to be 0.995 ± 0.065. To TTGTTTTTGA belongs 1.05 ± 0.067.

Consider AAGTAAGCAG, for which the switch fluorescence ratio came to 0.9636 ± 0.0011. For GGTATGTACG, the switch fluorescence ratio worked out at 1.03 ± 0.054. With TTTTGGCGAC, the switch fluorescence ratio came to 0.976 ± 0.027. For the sequence GGATCCTGCA, the switch fluorescence ratio was 1.04 ± 0.052.

In the case of TATTATTTCA, the switch fluorescence ratio was 0.991 ± 0.024. To GCTGTTGTTG belongs 0.9918 ± 0.0051; to TATATTTG, 0.9883 ± 0.0065. Then TTTTAGTGTC, with 0.998 ± 0.072. Turning to TACCGTTTAT, the switch fluorescence ratio came out at 1.02 ± 0.036.

TTTAAATTAA: the switch fluorescence ratio was determined as 0.9938 ± 0.0026.

Source of the values: the supplement of paper PMC10126150.
